The values that follow come from patent publication US20250249120A1 (CHILDREN S HEALTH CARE D B A CHILDREN S MINNESOTA, published 2025).

This experiment deals with T1, CD179a (VpreB1) component of the pre-BCR surrogate light chain, on B-ALL cells (human, UniProt P12018 20-145).
T1 sequence (looked up): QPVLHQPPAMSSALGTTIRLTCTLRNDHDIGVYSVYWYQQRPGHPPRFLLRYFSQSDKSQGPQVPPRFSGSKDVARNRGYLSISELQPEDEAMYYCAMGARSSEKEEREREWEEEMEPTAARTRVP
Nature of the experiment: cell-based or functional assay.

B1: calicheamicin-based antibody-drug conjugate (ADC) against CD179a (antibody, human IgG1, kappa, V domains shown)
VH: EVQLVESGGGLVKPGGSLRLSCAASGFTFSNFEMNWVRQAPGKGLEWVSGISSNGRYINYADSVKGRFTISRDNAKNSLYLQMNSLRAEDTAVYYCARVVDFDQDYNGFDYWGQGTLVTVSS
VL: DIQLTQSPSFLSASVGDRVTITCRASQGISTDLNWYQQKPGKAPKLLIYAASNLESGVPSRFSGSGSGTEFTLTISSLQPEDFATYYCQQSYNWPYTFGGGTKVEIKR
modifications: AcBut-calicheamicin linker-payload, DAR of 5:1, conjugated residues not stated
With B1, the “IC50 (the inhibitory concentration that causes 50% of cells to die), Nalm6 B-ALL cell line” value worked out at 0.059 µg/mL.
